Results on 31 molecules are retold here after US20230056252A1 (Gilead, published 2023).

Positions count from the first letter of the chain named.

B1: mSP34 Fab-HF (Fab, V domains shown)
VH: EVKLLESGGGLVQPKGSLKLSCAASGFTFNTYAMNWVRQAPGKGLEWVARIRSKYNNYATYYADSVKDRFTISRDDSQSILYLQMNNLKTEDTAMYYCVRHGNFGNSYVSWFAYWGQGTLVTVSA
VL: QAVVTQESALTTSPGETVTLTCRSSTGAVTTSNYANWVQEKPDHLFTGLIGGTNKRAPGVPARFSGSLIGDKAALTITGAQTEDEAIYFCALWYSNLWVFGGGTKLTVLG
notes: also called mSP34 chimeric Fab; mSP34 human chimeric Fab
B2: huSP34.2.1 Fab-HF (Fab, V domains shown)
VH: EVQLVESGGGLVQPGGSLRLSCAASGFTFSTYAMNWVRQAPGKGLEWVGRIRSKYNNYATYYAASVKGRFTISRDDSKNSLYLQMNSLKTEDTAMYYCVRHGNFGNSYVSWFAVWGQGTLVTVSS
VL: QAVVTQEPSLTVSPGGTVTLTCRSSTGAVTTSNYANWVQQKPGQAPRGLIGGTNKRAPWTPARFSGSLIGDKAALTLSGAQPEDEAEYYCALWYSNLWVFGGGTKLTVL
notes: also called HC2+LC1
B3: huSP34.8.2 Fab-HF (Fab, V domains shown)
VH: B2 VH with T31D, I51T, M95V, N106H
VL: B2 VL with R23G, N54S, K55N, I69L, D71G
notes: also called HC8+LC2
B4: huSP34.4.4 Fab-HF (Fab, V domains shown)
VH: B2 VH with K89R, M95V, N106H
VL: B2 VL with R23G, N33H, N54S, I69L, D71G, N96A
notes: also called HC4+LC4
B5: huSP34.7.2 Fab-HF (Fab, V domains shown)
VH: B2 VH with T31D, I51T, M95V
VL: B2 VL with R23G, N54S, K55N, I69L, D71G
notes: also called HC7+LC2
B6: huSP34.7.1 Fab-HF (Fab, V domains shown)
VH: B2 VH with T31D, I51T, M95V
VL: B2 VL
notes: also called HC7+LC1
B7: huSP34.5.2 Fab-HF (Fab, V domains shown)
VH: B2 VH with A64D, D76N, S80T, K89R, T90A, M95V, N106H
VL: B2 VL with R23G, N54S, K55N, I69L, D71G
notes: also called HC5+LC2
B8: huSP34.4.2 Fab-HF (Fab, V domains shown)
VH: B2 VH with K89R, M95V, N106H
VL: B2 VL with R23G, N54S, K55N, I69L, D71G
notes: also called HC4+LC2
B9: huSP34.6.5 Fab-HF (Fab, V domains shown)
VH: B2 VH with A64D, D76N, S80T, K89R, T90A
VL: B2 VL with R23G, S32G, N33H, N54S, K55N, I69L, D71G, N96A, L97R
notes: also called HC6+LC5
B10: huSP34.6.1 Fab-HF (Fab, V domains shown)
VH: B2 VH with A64D, D76N, S80T, K89R, T90A
VL: B2 VL
notes: also called HC6+LC1
B11: huSP34.6.2 Fab-HF (Fab, V domains shown)
VH: B2 VH with A64D, D76N, S80T, K89R, T90A
VL: B2 VL with R23G, N54S, K55N, I69L, D71G
notes: also called HC6+LC2
B12: huSP34.8.1 Fab-HF (Fab, V domains shown)
VH: B2 VH with T31D, I51T, M95V, N106H
VL: B2 VL
notes: also called HC8+LC1
B13: huSP34.5.4 Fab-HF (Fab, V domains shown)
VH: B2 VH with A64D, D76N, S80T, K89R, T90A, M95V, N106H
VL: B2 VL with R23G, N33H, N54S, I69L, D71G, N96A
notes: also called HC5+LC4
B14: huSP34.4.1 Fab-HF (Fab, V domains shown)
VH: B2 VH with K89R, M95V, N106H
VL: B2 VL
notes: also called HC4+LC1
B15: huSP34.7.4 Fab-HF (Fab, V domains shown)
VH: B2 VH with T31D, I51T, M95V
VL: B2 VL with R23G, N33H, N54S, I69L, D71G, N96A
notes: also called HC7+LC4
B16: huSP34.3.5 Fab-HF (Fab, V domains shown)
VH: B2 VH with S30N, A64D, K89R, M95V, N106H, V114Y
VL: B2 VL with R23G, S32G, N33H, N54S, K55N, I69L, D71G, N96A, L97R
notes: also called HC3+LC5
B17: huSP34.4.5 Fab-HF (Fab, V domains shown)
VH: B2 VH with K89R, M95V, N106H
VL: B2 VL with R23G, S32G, N33H, N54S, K55N, I69L, D71G, N96A, L97R
notes: also called HC4+LC5
B18: huSP34.5.1 Fab-HF (Fab, V domains shown)
VH: B2 VH with A64D, D76N, S80T, K89R, T90A, M95V, N106H
VL: B2 VL
notes: also called HC5+LC1
B19: huSP34.6.4 Fab-HF (Fab, V domains shown)
VH: B2 VH with A64D, D76N, S80T, K89R, T90A
VL: B2 VL with R23G, N33H, N54S, I69L, D71G, N96A
notes: also called HC6+LC4
B20: huSP34.5.5 Fab-HF (Fab, V domains shown)
VH: B2 VH with A64D, D76N, S80T, K89R, T90A, M95V, N106H
VL: B2 VL with R23G, S32G, N33H, N54S, K55N, I69L, D71G, N96A, L97R
notes: also called HC5+LC5
B21: huSP34.3.6 Fab-HF (Fab, V domains shown)
VH: B2 VH with S30N, A64D, K89R, M95V, N106H, V114Y
VL: QAVVTQPPSLTVSPGGTVTLTCGSSTGAVTTGHYANWVQQKPGQAPRGLIGGTSNRAPGVPARFSGSLSGGKAALTISGAQPEDEAEYYCALWYSARWVFGGGTKLTVL
notes: also called HC3+LC6
B22: huSP34.7.5 Fab-HF (Fab, V domains shown)
VH: B2 VH with T31D, I51T, M95V
VL: B21 VL with P7E, G59W, V60T, S69L, I77L
notes: also called HC7+LC5
B23: huSP34.2.6 Fab-HF (Fab, V domains shown)
VH: B2 VH
VL: B21 VL
notes: also called HC2+LC6
B24: huSP34.4.6 Fab-HF (Fab, V domains shown)
VH: B2 VH with K89R, M95V, N106H
VL: B21 VL
notes: also called HC4+LC6
B25: huSP34.8.4 Fab-HF (Fab, V domains shown)
VH: B2 VH with T31D, I51T, M95V, N106H
VL: B2 VL with R23G, N33H, N54S, I69L, D71G, N96A
notes: also called HC8+LC4
B26: huSP34.3.1 Fab-HF (Fab, V domains shown)
VH: B2 VH with S30N, A64D, K89R, M95V, N106H, V114Y
VL: B2 VL
notes: also called HC3+LC1
B27: huSP34.2.2 Fab-HF (Fab, V domains shown)
VH: B2 VH
VL: B2 VL with R23G, N54S, K55N, I69L, D71G
notes: also called HC2+LC2
B28: huSP34.2.4 Fab-HF (Fab, V domains shown)
VH: B2 VH
VL: B2 VL with R23G, N33H, N54S, I69L, D71G, N96A
notes: also called HC2+LC4
B29: huSP34.3.2 Fab-HF (Fab, V domains shown)
VH: B2 VH with S30N, A64D, K89R, M95V, N106H, V114Y
VL: B2 VL with R23G, N54S, K55N, I69L, D71G
notes: also called HC3+LC2
B30: huSP34.2.5 Fab-HF (Fab, V domains shown)
VH: B2 VH
VL: B21 VL with P7E, G59W, V60T, S69L, I77L
notes: also called HC2+LC5
B31: huSP34.3.4 Fab-HF (Fab, V domains shown)
VH: B2 VH with S30N, A64D, K89R, M95V, N106H, V114Y
VL: B2 VL with R23G, N33H, N54S, I69L, D71G, N96A
notes: also called HC3+LC4
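Further: biolayer interferometry with biotinylated CD3 epsilon:delta captured on streptavidin sensors, Fab analyte at several concentrations up to 300 nM, 100 s association then 300 s dissociation.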

In the assay the target is T1, biotinylated CD3 epsilon:delta heterodimer protein (Amsbio AMS.CDD-H52WO) (Homo sapiens (Human), UniProt P07766 23-126; P04234 22-105).
T1 construct: also called CD3 heterodimer
In words: BLI (Octet), CD3 on SA sensor, Fab analyte. (Biolayer interferometry detects binding as a change in optical thickness at a sensor tip.)
Procedure: The CD3 binding kinetics of the purified huSP34 Fabs were determined using OctetRed384 (Pall ForteBio, CA) biolayer interferometry (BLI). […] Streptavidin (SA) coated biosensors tips (Pall ForteBio, CA) were used to capture biotinylated CD3 epsilon: delta heterodimer and typical immobilization levels captured on the SA sensors were 1 nm which approximately translates to 300 ng/ml of captured protein. For kinetic measurements biosensors were first pre-wetted with assay buffer for 10 minutes to remove protective sucrose coating followed by the recommended regeneration conditions for standardization of the biosensor surface for the experiment. In order to load the biosensors with antigen, 300 ng/ml of biotinylated CD3 epsilon: delta heterodimer protein (Amsbio AMS.CDD-H52WO) was immobilized on the SA sensor for 900 seconds. The CD3 loaded biosensors were then blocked with 20 ug/ml biocytin (sigma) for 200 seconds and then dipped into assay buffer containing wells for 200 seconds to remove any non-specific protein or unbound CD3 heterodimer.
CD3 loaded and biocytin blocked biosensors were then transferred into fresh assay buffer for 200 seconds to collect a baseline read. Kinetic measurements for anti-CD3 Fab and bispecific antibody binding were performed by dipping the CD3-coated biosensors into wells containing multiple concentrations of Fab or Ab (0-300 nM) for 100 seconds followed by a 300 second dissociation time by transferring the biosensors into assay buffer containing wells. The CD3 loaded sensors were then regenerated for the next kinetic measurement. Biosensors were generated by removing bound Fabs or Ab from immobilized CD3 on SA biosensors. Regeneration conditions used consisted of 3 cycles of 5 seconds of dipping the biosensors in Regeneration Buffer (10 mM Glycine HCl pH 1.5) followed by Assay Buffer (10 mM sodium phosphate pH 7.4, 140 mM Sodium Chloride, 0.005% Tween20 with 0.2% BSA).
As to B1, the Kd (in general, the concentration at which binding is half-saturated) came to 9.6 nM; the koff (in general, the rate constant with which the complex falls apart) is 0.0025 s⁻¹; the kon – broadly, the rate constant with which the complex forms – is 262000 M⁻¹ s⁻¹.

For the molecule B2, the affinity, expressed as Kd, was 24.6 nM; the koff worked out at 0.00596 s⁻¹; the kon came to 246000 M⁻¹ s⁻¹.

Turning to B3, binding was put at a Kd of 3440 nM, the koff was determined as 0.0982 s⁻¹ and the kon was 172000 M⁻¹ s⁻¹.

Molecule B4 had a Kd of 159 nM, a koff of 0.0436 s⁻¹ and a kon of 274000 M⁻¹ s⁻¹.

B5 returned a Kd of 498 nM, a koff of 0.155 s⁻¹ and a kon of 318000 M⁻¹ s⁻¹.

For B6, the affinity, expressed as Kd, was 372 nM; the koff was 0.0855 s⁻¹; the kon worked out at 235000 M⁻¹ s⁻¹.

B7 yielded an equilibrium dissociation constant (Kd) of 1200 nM, a koff of 0.109 s⁻¹ and a kon of 90800 M⁻¹ s⁻¹.

B8 returned a Kd of 45.2 nM, a koff of 0.0144 s⁻¹ and a kon of 321000 M⁻¹ s⁻¹.

The molecule B9 yielded a Kd of 353 nM, a koff of 0.0963 s⁻¹ and a kon of 273000 M⁻¹ s⁻¹.

Take B10: binding was characterised by a dissociation constant (Kd) of 53.9 nM, the koff turned out to be 0.0199 s⁻¹ and the kon turned out to be 478000 M⁻¹ s⁻¹.

Turning to B11, the Kd is 351 nM, the koff is 0.0499 s⁻¹ and the kon was determined as 144000 M⁻¹ s⁻¹.

Turning to B12, the Kd stood at 443 nM, the koff worked out at 0.0823 s⁻¹ and the kon was determined as 186000 M⁻¹ s⁻¹.

B13 had a Kd of 497 nM, a koff of 0.213 s⁻¹ and a kon of 429000 M⁻¹ s⁻¹.

The molecule B14 showed a Kd of 19.8 nM, a koff of 0.00723 s⁻¹ and a kon of 396000 M⁻¹ s⁻¹.

Molecule B15 came in with a Kd of 4180 nM, a koff of 0.424 s⁻¹ and a kon of 265000 M⁻¹ s⁻¹.

B16 gave a Kd of 68.5 nM, a koff of 0.0177 s⁻¹ and a kon of 260000 M⁻¹ s⁻¹.

In the case of B17, the Kd was 211 nM, the koff was found to be 0.0506 s⁻¹ and the kon amounted to 241000 M⁻¹ s⁻¹.

Turning to B18, the Kd stood at 123 nM, the koff was found to be 0.0365 s⁻¹ and the kon was found to be 311000 M⁻¹ s⁻¹.

With B19, binding was put at a Kd of 570 nM, the koff was 0.202 s⁻¹ and the kon is 359000 M⁻¹ s⁻¹.

As to B20, the Kd was 666 nM, the koff was determined as 0.185 s⁻¹ and the kon is 277000 M⁻¹ s⁻¹.

On to B21, for which binding was characterised by a dissociation constant (Kd) of 18.9 nM, the koff stood at 0.00482 s⁻¹ and the kon was 266000 M⁻¹ s⁻¹.

B22 showed a Kd of 1460 nM, a koff of 0.848 s⁻¹ and a kon of 307000 M⁻¹ s⁻¹.

As to B23, the Kd turned out to be 30.6 nM, the koff came to 0.0107 s⁻¹ and the kon was 351000 M⁻¹ s⁻¹.

Turning to B24, the Kd amounted to 22.7 nM, the koff turned out to be 0.0101 s⁻¹ and the kon was found to be 451000 M⁻¹ s⁻¹.

For B25, the Kd was determined as 305 nM, the koff came to 0.163 s⁻¹ and the kon worked out at 561000 M⁻¹ s⁻¹.

In turn, B26 yielded a Kd of 14.7 nM, a koff of 0.00366 s⁻¹ and a kon of 252000 M⁻¹ s⁻¹.

With B27, the Kd stood at 26.4 nM, the off-rate (koff) worked out at 0.0141 s⁻¹ and the kon was 609000 M⁻¹ s⁻¹.

In turn, B28 had a Kd of 99.4 nM, a koff of 0.0335 s⁻¹ and a kon of 398000 M⁻¹ s⁻¹.

Regarding B29, the Kd worked out at 25.4 nM, the koff was 0.00952 s⁻¹ and the kon is 381000 M⁻¹ s⁻¹.

B30 gave a Kd of 162 nM, a koff of 0.0408 s⁻¹ and a kon of 251000 M⁻¹ s⁻¹.

With B31, the Kd was found to be 85.8 nM, the koff was determined as 0.0246 s⁻¹ and the kon worked out at 287000 M⁻¹ s⁻¹.
